Results published in article PMC4201148.

Assays:
[1] = molecular target: YFPn-SpvC (Salmonella enterica subsp. enterica serovar Typhimurium strain 14028s) (UniProt P0A2M9); experiment: split reporter (BiFC, NanoBiT); BiFC with YFPn and YFPc fusions co-expressed in Arabidopsis epidermal cells by particle bombardment together with p35S-mCherry; fluorescence observed 24-48 h after transformation by confocal microscopy; YFP-positive cells counted among mCherry-positive cells
[2] = molecular target: YFPc-SpvC (Salmonella enterica subsp. enterica serovar Typhimurium strain 14028s) (UniProt P0A2M9); experiment: as above

Substance | percent of transformed cells with reconstituted YFP [1] | percent of transformed cells with reconstituted YFP [2]
YFPc-MPK6 (from UniProt Q39026 1-395) (transformed cells) | 34% | –
YFPn-MPK6 (from UniProt Q39026 1-395) | – | 18%
